In US20240301076A1 (CEPHALON, published 2024):

Columns and labels:
[1] = target: T1, human CXCR2 (human, UniProt P25025 1-360); experiment: cell-based or functional assay
T1 sequence: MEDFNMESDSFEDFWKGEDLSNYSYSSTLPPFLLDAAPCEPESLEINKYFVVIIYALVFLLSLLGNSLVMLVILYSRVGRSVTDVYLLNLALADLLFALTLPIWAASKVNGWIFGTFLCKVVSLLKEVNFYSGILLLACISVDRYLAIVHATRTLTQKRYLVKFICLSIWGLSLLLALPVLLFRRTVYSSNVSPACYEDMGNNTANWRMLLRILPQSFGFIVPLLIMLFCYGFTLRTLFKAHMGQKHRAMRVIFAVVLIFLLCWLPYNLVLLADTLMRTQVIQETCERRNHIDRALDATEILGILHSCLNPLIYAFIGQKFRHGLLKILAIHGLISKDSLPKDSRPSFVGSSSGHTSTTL

[2] = target: T1, human CXCR2; experiment: cell-based or functional assay; remark: listed apart in the source
[3] = target: T1, human CXCR2; experiment: flow cytometry, CXCR2-transfected Expi293F cells
Procedure: Harvested cells were resuspended in FACS buffer (1×PBS+0.5% (w/v) bovine serum albumin (BSA)+2 mM EDTA pH 7.2). Approximately 2×10⁵ cells were added per well in a 96-well round-bottomed plate. Cells were pelleted by centrifugation at 400 g for 5 mins at 4° C. and supernatants discarded. 25 μL of each test antibody or control antibody was added to the cells and incubated for 30 minutes at 4° C. Cells were washed twice in 100 μL FACS buffer followed by centrifugation at 400 g for 5 mins at 4° C.
For detection, 50 μL of secondary antibody (Table 2) was added to relevant samples. Commercially available antibodies that bound to transfected CXCR family members were used as positive controls to ensure that the cells were expressing the receptors. Cells were washed twice in 200 μL of FACS buffer followed by centrifugation at 400 g for 5 mins at 4° C. Before sample acquisition, cells were resuspended in 100 μL of FACS buffer. Samples were acquired using the high throughput sampler on a FACSCanto™ II cytometer (Beckton-Dickinson).
A further six heavy chain combinational variants comprising four or more amino acid substitutions were produced as provided in Table 12. […] Each heavy chain was co-expressed with light chain c (SEQ ID NO:110) to produce an antibody variant. Antibodies were purified and tested for CXCR2 binding activity as described in General Methods.

[4] = target: T1, human CXCR2; experiment: cell-based or functional assay; remark: listed apart in the source
[5] = target: T1, human CXCR2; experiment: cell-based or functional assay; remark: listed apart in the source
[6] = target: T1, human CXCR2; experiment: cell-based or functional assay; remark: listed apart in the source

B1: BKO-4A8-101c (antibody, human IgG4 S228P, lambda, V domains shown)
VH: EVQLLESGGGLVQPGGSLRLSCAASGFTFSSSTQSWVRQPPGKGLEWVSAISGRGRSTYYADSVKGRFTISRDNSKNTLYLQMNSLRAEDTAVYYCAIQAGYWGQGILVTVSS
VL: QSALTQPPSASGSPGQSVTISCIGTSSDVGGYNYVSWYQQHPGKAPKLMIYEVSKRPSGVPDRFSGSKSGNTASLTVSGLQAEDEADYYCSSYAGSNNFGVFGGGTKLTVLG
- CXCL1 IC50, calcium flux [1]: 1.47 nM
- IC50 mean, Hu CXCL1, calcium flux [2]: 1.55 nM
- IC50 mean, Hu CXCL2, calcium flux [2]: 1.62 nM
- IC50 mean, Hu CXCL3, calcium flux [2]: 0.63 nM
- IC50 mean, Hu CXCL5, calcium flux [2]: 1.03 nM
- IC50 mean, Hu CXCL6, calcium flux [2]: 1.71 nM
- IC50 mean, Hu CXCL7, calcium flux [2]: 2.14 nM
- EC50 [3]: 3.05 nM
- Max binding (MFI Percent of 4A8 WT) [3]: 89%
- Max binding (MFI) [3]: 55000 MFI
- CXCL1 Fold Improvement over 4A8 WT [4]: 1.49 fold
- CXCL1 IC50, Tango assay [4]: 0.63 nM
- CXCL8 Fold Improvement over 4A8 WT [4]: 2.39 fold
- CXCL8 IC50, Tango assay [4]: 0.28 nM
- CXCL1 IC50, β-arrestin recruitment [5]: 0.38 nM
- CXCL5 IC50, β-arrestin recruitment [5]: 0.34 nM
- CXCL8 IC50, β-arrestin recruitment [5]: 0.34 nM
- IC50 mean, Hu CXCL1, Tango β-arrestin [6]: 0.27 nM
- IC50 mean, Hu CXCL2, Tango β-arrestin [6]: 0.36 nM
- IC50 mean, Hu CXCL3, Tango β-arrestin [6]: 0.39 nM
- IC50 mean, Hu CXCL5, Tango β-arrestin [6]: 0.3 nM
- IC50 mean, Hu CXCL6, Tango β-arrestin [6]: 0.28 nM
- IC50 mean, Hu CXCL7, Tango β-arrestin [6]: 0.44 nM
- IC50 mean, Hu CXCL8, Tango β-arrestin [6]: 0.34 nM
